Laboratory results taken from US10005846 (LIFEARC, dated 2018).

T1: cynomolgus monkey TG2 (cynomolgus monkey, UniProt A0A2K5VXI8 1-687)
T1 construct: Bought recombinant protein; also called cynomogulus monkey TG2; cyano TG2
T1 sequence: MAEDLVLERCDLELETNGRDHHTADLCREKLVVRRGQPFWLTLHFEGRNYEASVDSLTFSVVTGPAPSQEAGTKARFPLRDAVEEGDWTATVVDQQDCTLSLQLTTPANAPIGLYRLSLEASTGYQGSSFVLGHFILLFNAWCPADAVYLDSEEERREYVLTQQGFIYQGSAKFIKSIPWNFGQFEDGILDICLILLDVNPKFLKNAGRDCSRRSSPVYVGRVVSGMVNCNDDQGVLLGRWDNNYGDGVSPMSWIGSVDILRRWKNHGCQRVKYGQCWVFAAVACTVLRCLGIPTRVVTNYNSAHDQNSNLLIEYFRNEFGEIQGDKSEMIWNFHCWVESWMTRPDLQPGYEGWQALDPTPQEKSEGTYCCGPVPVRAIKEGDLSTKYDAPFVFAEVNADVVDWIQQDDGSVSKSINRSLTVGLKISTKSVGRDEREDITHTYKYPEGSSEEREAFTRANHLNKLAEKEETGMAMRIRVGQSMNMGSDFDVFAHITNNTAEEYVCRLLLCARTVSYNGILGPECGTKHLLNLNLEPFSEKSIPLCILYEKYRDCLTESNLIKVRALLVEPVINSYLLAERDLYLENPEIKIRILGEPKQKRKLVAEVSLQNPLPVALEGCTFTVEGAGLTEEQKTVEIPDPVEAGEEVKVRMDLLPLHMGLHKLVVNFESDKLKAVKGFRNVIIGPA

T2: human transglutaminase type 2 (TG2) (human, UniProt P21980 1-687)
T2 construct: Recombinant full-length human TG2 (Zedira; cat; T002 in the Biacore work); Also used here for the endogenous TG2 of HepG2 lysate and HK-2 cells; also called hTG2; rhTG2
T2 sequence: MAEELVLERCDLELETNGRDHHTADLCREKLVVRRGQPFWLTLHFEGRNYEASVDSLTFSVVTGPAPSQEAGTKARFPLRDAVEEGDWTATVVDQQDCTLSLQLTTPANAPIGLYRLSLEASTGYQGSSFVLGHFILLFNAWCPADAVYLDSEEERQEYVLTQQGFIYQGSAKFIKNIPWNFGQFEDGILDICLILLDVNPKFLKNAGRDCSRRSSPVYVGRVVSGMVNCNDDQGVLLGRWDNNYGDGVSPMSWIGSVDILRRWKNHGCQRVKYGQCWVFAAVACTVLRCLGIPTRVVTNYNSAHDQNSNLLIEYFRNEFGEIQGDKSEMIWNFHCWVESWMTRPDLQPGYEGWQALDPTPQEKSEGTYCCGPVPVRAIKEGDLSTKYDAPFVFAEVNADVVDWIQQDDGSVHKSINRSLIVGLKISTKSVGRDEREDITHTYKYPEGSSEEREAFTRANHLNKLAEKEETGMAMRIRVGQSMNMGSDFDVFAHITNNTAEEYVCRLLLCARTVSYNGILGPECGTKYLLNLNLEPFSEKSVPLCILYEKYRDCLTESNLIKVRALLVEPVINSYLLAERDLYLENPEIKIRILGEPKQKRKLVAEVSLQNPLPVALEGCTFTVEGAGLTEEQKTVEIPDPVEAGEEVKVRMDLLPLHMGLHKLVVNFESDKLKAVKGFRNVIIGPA

B1: cDC001 chimeric antibody (murine DC1 variable regions) (antibody, human IgG1, V domains shown)
VH: EVQLVESGGGLVKPGGSLKLSCAASGFTLSTHAMSWVRQTPEKRLEWVATISSGGRSTYYPDSVKGRFTISRDNVKNTLYLQLSSLRSEDTAVYFCARLISTYWGQGTTLTVSS
VL: DITMTQSPSSIYASLGERVTITCKASQDINSYLTWFQQKPGKSPKILIYLVNRLVDGVPSRFSGSGSGQDYALTISSLEYEDMGIYYCLQYDDFPYTFGGGTKLEIK
notes: also called Chimeric DC1
B2: hAB005 (hAB001AJ) humanised AB1 antibody (antibody, V domains shown)
VH: EVQLLESGGGLVQPGGSLRLSCAASGFTFSSSAMSWVRQAPGKGLEWVSTISVGGGKTYYPDSVKGRFTISRDNSKNTLYLQMNSLRAEDTAVYYCAKLISLYWGQGTLVTVSS
VL: DIQMTQSPSSLSASVGDRVTITCKASQDINSYLTWFQQKPGKAPKSLIYRTNRLFDGVPSRFSGSGSGTDFFLTISSLQPEDFATYYCLQYDDFPYTFGQGTKVEIK
notes: captured by anti-human IgG1 (Fc); also called Heavy Chain version RHA with Light Chain version RKJ
B3: RHA/VKc (antibody, V domains shown)
VH: EVQLLESGGGLVQPGGSLRLSCAASGFTFSSSAMSWVRQAPGKGLEWVSTISVGGGKTYYPDSVKGRFTISRDNSKNTLYLQMNSLRAEDTAVYYCAKLISLYWGQGTLVTVSS
VL: EIVLTQSPSSMYASLGERVTITCKASQDINSYLTWFQQKPGKSPKTLIYRTNRLFDGVPSRFSGSGSGQDFFLTISSLEYEDMGIYYCLQYDDFPYTFGGGTKLEIK
notes: also called hAB001AKc
B4: VHc/RKE (antibody, V domains shown)
VH: EVQLVESGGGLVKPGGSLKLSCAASGFTLSSSAMSWVRQTPDRRLEWVATISVGGGKTYYPDSVKGRFTISRDNAKNTLYLQMNSLRSEDTAMYYCAKLISLYWGQGTTLTVSS
VL: EIVLTQSPSSLSASVGDRVTITCKASQDINSYLTWYQQKPGKAPKLLIYRTNRLFDGVPSRFSGSGSGTDFFFTISSLQPEDFGTYYCLQYDDFPYTFGGGTKLEIK
notes: also called hAB001HcE
B5: VHc/RKJ (antibody, V domains shown)
VH: EVQLVESGGGLVKPGGSLKLSCAASGFTLSSSAMSWVRQTPDRRLEWVATISVGGGKTYYPDSVKGRFTISRDNAKNTLYLQMNSLRSEDTAMYYCAKLISLYWGQGTTLTVSS
VL: DIQMTQSPSSLSASVGDRVTITCKASQDINSYLTWFQQKPGKAPKSLIYRTNRLFDGVPSRFSGSGSGTDFFLTISSLQPEDFATYYCLQYDDFPYTFGQGTKVEIK
notes: also called hAB001HcJ
B6: RHA/VKc1 (antibody, V domains shown)
VH: EVQLLESGGGLVQPGGSLRLSCAASGFTFSSSAMSWVRQAPGKGLEWVSTISVGGGKTYYPDSVKGRFTISRDNSKNTLYLQMNSLRAEDTAVYYCAKLISLYWGQGTLVTVSS
VL: DIQMTQSPSSMYASLGERVTITCKASQDINSYLTWFQQKPGKSPKTLIYRTNRLFDGVPSRFSGSGSGQDFFLTISSLEYEDMGIYYCLQYDDFPYTFGGGTKLEIK
notes: also called hAB001AKc1

How the values were obtained:
[1] = target: T1, cynomolgus monkey TG2; assay: ELISA on immobilised cynomolgus monkey TG2; r2 0.9993; EC50 95% confidence range 0.3887 to 0.4489 [panel A]
Description: (§1) Antibody binding to human and cynomolgus monkey TG2 was determined in an ELISA assay. Clear polystyrene "Maxisorp" 96-well plates (Nunc) were coated with 50 ng purified human or cynomogulus monkey TG2 in 50 µl 0.05 M carbonate-bicarbonate buffer pH 9.6 at 4° C. overnight. Control wells were coated with 50 µl 100 µg/ml bovine serum albumin (BSA). Plates were washed 3× with 300 µl phosphate-buffered saline pH7.4 (PBS) containing 0.1% Tween 20 (PBST) and blocked with 300 µl 3% w/v Marvel skimmed milk in PBS for 1 hour at room temperature. After 3× wash with PBST, 50 µl protein-A purified chimeric or humanised anti-TG2 antibodies or human IgG1 kappa […] control antibody or CUB7402 (Abcam) were serially diluted 4-fold from a top concentration of 50 nM in PBS, and added to the plate in duplicate. […] After 3× washes with PBST, the plates were developed with 50 µl TMB substrate (Sigma) for 5 min at room temperature before stopping the reaction with 25 µl 0.5M H2SO4 and reading absorbance at 450 nm in a microtiter plate reader (BioTek EL808). Dose response curves were analysed and EC50 values and other statistical parameters determined using a 4-parameter logistical fit of the data (GraphPad Prism).

[2] = target: T2, human transglutaminase type 2 (TG2); assay: SPR (Biacore T200), antibody captured on anti-human IgG1 Fc chip, TG2 injected; calcium condition not marked in the row
Description: (§2) Recombinant cynomolgus monkey TG2 was obtained from Trenzyme. Surface plasmon resonance (SPR) was measured on a Biacore T200 instrument (GE Healthcare). CM5 chips (GE Healthcare cat. no.: BR-1006-68) were coated with monoclonal mouse anti-human IgG1 (Fc) (MAH) antibody (GE Healthcare cat. no.: BR-1008-39) by amine-coupling as described in the manufacturers instructions. HBS-EP+ buffer (0.01 M HEPES, 0.15 M NaCl, 3 mM EDTA, 0.05% v/v Surfactant P20) and HBS-P+ buffer (0.01 M HEPES, 0.15 M NaCl, 0.05% Surfactant P20) were purchased from GE Healthcare as 10× stocks (cat. nos.: BR-1006-69 and BR-1006-71). Calcium Chloride solution was obtained from Sigma Aldrich (cat. no.:21115).
(§3) The method employed to determine the affinity of the anti-TG2 antibodies involved the capture of the chimeric or humanised antibodies on a MAH coated CM5 chip, followed by the injection of a series of TG2 samples in running buffer. The running buffer was 1×HBS-P+ containing 1 mM CaCl_2, or 1×HBS-EP+ for calcium-free experiments. Antibody capture was carried out for a contact time of 120 seconds at a flow rate of 10 μl/min resulting in the capture of approximately 40-80 RU. TG2 was injected over the immobilised antibody at concentrations ranging from 25 nM to 400 nM with a contact time up to 600 seconds at a flow rate of 30 μl/min. Dissociation of TG2 was typically measured for up to 5400 seconds (1.5 hours). Regeneration of the chip was then performed using 3 M MgCl_2, for a contact time of 60 seconds at a flow rate of […], followed by a 300 s stabilisation period before the next sample. For each of human and cynomolgus monkey TG2, at least 5 injections at a variety of concentrations were performed in at least two separate experiments.
(§4) Kinetic data were exported from the Biacore T200 Evaluation Software and analysed using GraphPad Prism, where the association phases and dissociation phases were analysed separately using a one phase association model and one-phase exponential decay model respectively. Association rates ($kon$) were calculated for each curve individually, and dissociation rates ($koff$) values from the long dissociation phase data collected. Where $koff$ values were calculated to be $<1\times10^-5$ s^-1, values were set at 1×10^-5 for analysis, as rates slower than this could not be estimated accurately.

[3] = target: T1, cynomolgus monkey TG2; assay: as above
Description: as §2, §3, §4

[4] = target: T1, cynomolgus monkey TG2; assay: cell-based or functional assay
[5] = target: T2, human transglutaminase type 2 (TG2); assay: cell-based or functional assay
[6] = target: T2, human transglutaminase type 2 (TG2); assay: ELISA on immobilised human TG2; r2 0.9985; EC50 95% confidence range 0.3927 to 0.4971 [panel A]
Description: as §1

[7] = target: T2, human transglutaminase type 2 (TG2); assay: cell-based or functional assay; remark: listed apart in the source
[8] = target: T2, human transglutaminase type 2 (TG2); assay: cell-based or functional assay; remark: listed apart in the source
[9] = target: T2, human transglutaminase type 2 (TG2); assay: anti-huTG2 ELISA of HEK293F supernatants
Description: Supernatants from HEK293F cells co-transfected with different combinations of humanised AB1 light chains and AB1 heavy chain vectors were assayed in an anti-human IgG ELISA to determine concentration and in an anti huTG2 ELISA. Each supernatant was assayed in triplicate and $IC50$'s determined.
HEK 293F cells were co-transfected with combinations of different humanised light chain vectors in association with different humanised heavy chain vectors. Recombinant human TG2 was used to measure antibody binding by ELISA. […] A similar approach was used to identify optimal pairs of humanized BB7 heavy and light chains, and humanised DC1 heavy and light chains.

Binder	Kd [2] [nM]	koff [2] [s⁻¹]	kon [2] [M⁻¹ s⁻¹]	Kd [3] [nM]	koff [3] [s⁻¹]	kon [3] [M⁻¹ s⁻¹]	binding result [9]	also measured
B1	< 0.03	< 1e-05	320000	< 0.024	< 1e-05	420000	–	EC50 [1]: 0.418 nM; IC50 of enzymatic inhibition, dansylated lysine incorporation into N,N-dimethylated casein [panel A] [4]: 5.86 nM; IC50 of enzymatic inhibition, dansylated lysine incorporation into N,N-dimethylated casein [continued), panel C] [5]: 0.851 nM; EC50 [6]: 0.442 nM
B2	< 0.05	< 1e-05	190000	0.24	3.4e-05	140000	–	IC50, extracellular TG activity of HK-2 cells, biotin cadaverine incorporation into fibronectin [7]: 71.8 nM; IC50 of enzymatic inhibition, dansylated lysine incorporation into N,N-dimethylated casein; 2 batches shown [continued), panel C] [8]: 6.87 nM
B3	–	–	–	–	–	–	binds	–
B4	–	–	–	–	–	–	binds	–
B5	–	–	–	–	–	–	binds	–
B6	–	–	–	–	–	–	binds	–
